Results on 11 molecules are retold here after patent US20150086555A1.

Common to all, as to conditions: remark: other sources report otherwise
Assay [1] addresses T1, recombinant soluble homotrimeric HA of A/duck/Yangzhou/02/05 (H8N4) (Influenza A virus A/duck/Yangzhou/02/2005(H8N4)). As to the kind of experiment: trimeric HA microarray, transfection supernatant set 2.
In assay [2] the target is recombinant soluble homotrimeric HA, A/Netherlands/219/03 H7N7 (Influenza A virus A/Netherlands/219/03(H7N7)). The experiment in a line: microarray, transfection SN IgG, trimeric HA.
The target of assay [3] is recombinant soluble homotrimeric HA, A/swine/Ontario/01911-2/99 H4N6 (Influenza A virus A/Swine/Ontario/01911-2/99 (H4N6)). The experiment in a line: microarray, transfection SN IgG, trimeric HA.
The target of assay [4] is recombinant soluble homotrimeric HA of A/Wisconsin/67/05 (H3N2) (Influenza A virus A/Wisconsin/67/2005(H3N2)). As to the kind of experiment: trimeric HA microarray, transfection supernatant set 5.
Assay [5] concerns the target T1, recombinant soluble homotrimeric HA of …. The description is as above.
Assay [6] addresses recombinant soluble homotrimeric HA of A/Vietnam/1203/04 (H5N1) (Influenza A virus A/VietNam/1203/2004(H5N1)). The assay is described as above.
In assay [7] the target is recombinant soluble homotrimeric HA of A/chicken/Vietnam/NCVD-016/08 (H5N1) (Influenza A virus A/chicken/Vietnam/NCVD-016/2008(H5N1)). Described as above.
The target of assay [8] is recombinant soluble homotrimeric HA of A/Indonesia/5/05 (H5N1) (Influenza A virus A/Indonesia/5/2005(H5N1)). Described as above.
Assay [9] addresses recombinant soluble homotrimeric HA of A/Egypt/3300-NAMRU3/08 (H5N1) (Influenza A virus A/Egypt/3300-NAMRU3/2008(H5N1)). Described as above.
The target in assay [10] is recombinant soluble homotrimeric HA of A/Japan/305/57 (H2N2) (Influenza A virus A/Japan/305/1957(H2N2)). The assay is described as above.
Assay [11] addresses recombinant soluble homotrimeric HA of A/South Carolina/1/18 (H1N1) (Influenza A virus A/South Carolina/1/18 (H1N1)). Described as above.
Assay [12] deals with recombinant soluble homotrimeric HA of A/northern shoveler/California/HKWF115/07 (H6) (Influenza A virus A/northern shoveler/California/HKWF115/2007(H6N1)). The description is as above.
For assay [13], the target named is recombinant soluble homotrimeric HA of A/California/4/09 (H1N1) (Influenza A virus A/California/04/2009(H1N1)). The description is as above.
Assay [14] has as its target recombinant soluble homotrimeric HA of A/Hong Kong/156/97 (H5N1) (Influenza A virus A/Hong Kong/156/97 (H5N1)). Described as above.
Assay [15] deals with recombinant soluble homotrimeric HA of A/Netherlands/219/03 (H7N7) (Influenza A virus A/Netherlands/219/03(H7N7)). The assay is described as above.
For assay [16], the target named is recombinant soluble homotrimeric HA of A/Anhui/1/05 (H5N1) (Influenza A virus A/Anhui/1/2005(H5N1)). The assay is described as above.
The target in assay [17] is recombinant soluble homotrimeric HA of A/swine/Ontario/01911-2/99 (H4N6) (Influenza A virus A/Swine/Ontario/01911-2/99 (H4N6)). Described as above.
In assay [18] the target is recombinant soluble homotrimeric HA of A/Solomon Islands/3/06 (H1N1) (Influenza A virus A/Solomon Islands/3/2006(H1N1)). The assay is described as above.

B1: TCN-527 (5086_C06) (antibody, V domains shown)
VH: QVQLQESGPGLVKPSETLSLNCAVSGGSISNYYWSWIRQPPGKGLEWIGYISYNGRPKYNPSLTSRVTISVDTSKDQFSLELRSVTAADTALYYCARETRFGELLSPYDAFEIWGQGTMVTVSS
VL: DIQMTQSPSSLSASVGDRVTMTCRASQNIRSYLNWYQQRPGTAPKLLIYAASTLHSGVPSRFSGGGSGTDFTLTINNLQPEDFASYYCQQSYDNPQTFGQGTKVEIK
On to B1, for which the Trimeric HA Binding: RLU in assay [1] worked out at 17900 RLU.

B2: TCN-553 (5261_C18) (antibody, V domains shown)
VH: QVQVVQSGTEVKKPGSSVKVSCQTSGGRFMSYAITWVRQAPGQGLEWMGGIVPVFGTANYAQKFQGRVTITTDDSTRTAYMELSSLRSEDTAVYYCGFRYGSGYGFDSWGQGTLVTVSS
VL: EIVLTQSPGTLSLSPGERATLSCRASQSVSSSYLAWYQKKPGQAPRLLIYGASTRATGIPDRFTGSGSGTDFTLSISRLEPEDFAVYYCQHFGTSVFTFGGGTKVEIK
In the case of B2, the Trimeric HA Binding: RLU in [2] amounted to 7530 RLU; in [3], 12200 RLU.

B3: TCN-546 (5089_L08) (antibody, V domains shown)
VH: QVQLQQWGAGLLKPSETLSLTCGVYGGSLSDYYWSWIRQPPGKGLEWIGEINHSGGTNYNPSLKRRVTISVDTSKKQFSLKMNSVTAADTAVYYCARGTDPDTEVYCRAGNCAAFDFWGQGTLVTVSS
VL: EIVLTQSPGTLSLSPGERATLSCRASHFVIGRAVAWYQQKPGQAPRLLIYGASSRATGIPDRFSGSGSGTDFTLTISRLETEDFAVFYCQHYGSSPRYAFGQGTKLEIK
On to B3, for which the Trimeric HA Binding: RLU in assay [4] turned out to be 28500 RLU; in [5], 11400 RLU; in assay [6] it was 47100 RLU; in [7], 2940 RLU; in assay [8], 40900 RLU; in assay [9] it was 53000 RLU. The Trimeric HA Binding: RLU in [10] is 1730 RLU; in assay [11], 955 RLU; in assay [12] it was 2430 RLU; in assay [13], 1080 RLU; in assay [14], 1240 RLU; in assay [15], 3740 RLU. Also, the Trimeric HA Binding: RLU was found to be 33300 RLU in [16] and 4610 RLU in [17].

B4: TCN-563 (5237_B21) (antibody, V domains shown)
VH: QVQLAQSGAEVKRPGSSVKVSCTASGGIFRKNAISWVRQAPGQGLEWMGGIIAVFNTANYAQKFQGRVKITADESGNTAYMELSSLRSDDTAVYYCASHPKYFYGSGSYPDFWGQGTLVTVSS
VL: QSALTQPRSVSGSPGQSVTISCTGSSSDVGASNSVSWYQQHPGKAPKLVIYDVTERPSGVPHRFSGSKSGNTASLTVSGLQPEDEADYFCCAYGGKYLVVFGGGTKVTVL
B4: the Trimeric HA Binding: RLU in [1] came to 6280 RLU.

B5: TCN-552 (5249_I23) (antibody, V domains shown)
VH: QVQVVQSGAEVKKPGSSVRVSCQASGGTFMNYAIIWVRRAPGQGLEWMGGIIPVFPTPNYAQMFQGRVTISTDESRSTSFLELTNLRYEDTAVYYCARRIYHGGNSGFDFWGQGTLVTVSS
VL: EIVLTQSPATLSLSPGERATLSCRASQSVGNYLAWYQQKPGQAPRLLIYDSSNRAPGIPARFSGSGSGTDFTLTISSLAPEDFAVYYCQQRSKWPPMYSFGHGTKLEIK
For B5, the results for the Trimeric HA Binding: RLU in [2] and in assay [3] were 7420 RLU and 9080 RLU, respectively.

B6: TCN-538 (3206_O17) (antibody, V domains shown)
VH: QITLKESGPTLVKPTQTLTLTCVFSGFSLSITGVRVGWIRQPPGKALEWLALISWDDEKHYSPSLQSRLTITKDTSKNQVVLTMTNLDPVDTATYYCARSTDRGHVLRYFGWMLPGDAFDVWGQGTMVTVSS
VL: DIVMTQSPDFLPVSLGERATINCKSSQRVLYSSNNKNYLAWYQLKPGQPPKLIIYWASTRESGVPDRFSGSGSGTEFTLTISSLQAEDVAVYYCQQYYSRPYTFGQGTKLEIK
In the case of B6, the Trimeric HA Binding: RLU in assay [5] was found to be 4060 RLU; in [6] it was 52400 RLU; in assay [7], 2950 RLU; in assay [18], 1960 RLU; in [8] it was 13700 RLU; in [9], 41000 RLU. Further, the Trimeric HA Binding: RLU is 6620 RLU in assay [10]; 8430 RLU in assay [11]; 8900 RLU in assay [12]; 16000 RLU in assay [13]; 5170 RLU in assay [14]; 4370 RLU in assay [15]. Also, in [17], the Trimeric HA Binding: RLU is 3350 RLU.

B7: TCN-550 (5096_F06) (antibody, V domains shown)
VH: QVQLQESGPGLVKPSETLSLTCTVSGASINSHYWSWIRQPPGKGLEWIGYVYYSGSTTYNPSLKSRVTLSVDTSKNQFSLNLSSVTAADTAFYYCARHPYDVLTGSGDWFDPWGQGTLVTVSS
VL: SYVLTQAPSVSVAPGQTARITCGGNAIGSKKVHWYQHKAGQAPVLVVYDDTDRPSGIPERFSGSNSWSTATLTINRVEAGDEADYYCQVWDFTIDHVVFGGGTKLTVL
B7: the Trimeric HA Binding: RLU is 3250 RLU in [2] and 1700 RLU in assay [3].

B8: TCN-522 (3212_I12) (antibody, V domains shown)
VH: QVQLQQWGAGLLKPSETLSLTCTVSGGSLTDYSWNWIRQPPGKGLEWIGDTLHNGYTNYNPSLRGRVSISIDTSKNQVSLRLTSVTAADTALYYCARGSGGYGGFDYFGKLRTWDFWGQGTLVTVSS
VL: DIQLTQSPSSLSASVGDRVTITCRASQGIRNDLGWYQQKPGNAPKRLIFGASSLQSGVPSRFSGSGSGTEFTLTISSLQPEDFATYYCLQHNSYPYTFGQGTKLEIK
For the molecule B8, in assay [1], the Trimeric HA Binding: RLU worked out at 1650 RLU.

B9: TCN-557 (5081_A04) (antibody, V domains shown)
VH: QVQLVQSGAEVKKPGASVKVSCKASGHTFTGYYIHWVRQAPGQGLEWMGWINPDSGATSSAQNFQGRVTMTGDTSSSTAYMELSRLSFDDTAVYYCARVLFTSPFDFWGEGTLVTVSS
VL: QAVVTQEPSLAVSPGGTVTLTCGSSTGAVTRGHYPYWFQQKPGQAPRALIYDSAGNRHSWTPARFSGSLLGGKAALTLSGAQPEDEAEYYCLLSYSGVWVFGGGTKLTVL
B9: the figures for the Trimeric HA Binding: RLU in [2] and in assay [3] were 53700 RLU and 41500 RLU, respectively.

B10: TCN-528 (5087_P17) (antibody, V domains shown)
VH: QVQLVQSGSEVKKPGASVKVSCKASGYTFTNYDINWIRQAPGQGLEWMGWINPNSGTTGSAQRFQGRVTITVDTSITTVYMELSSLRSDDTAIYYCARGRELLRLQHFLTDSQSERRDCFDPWGQGTLVTVSS
VL: DIQMTQSPSSLSASVGDRVTITCRANQDIGIYLNWYQQNPGKVPKLLLHGASSLQGGVPSRFSASGSGTDFTLTIHSLQPEDLATYYCQQSRRLPYTFGQGTRVELK
As to B10, the Trimeric HA Binding: RLU in assay [1] was found to be 19800 RLU.

B11: TCN-539 (5056_A08) (antibody, V domains shown)
VH: QVQLVESGGGVVQPGRSLRLSCAASEITFITYAMHWVRQAPGKGLEWVALISDDGSNKFYADSVKGRFTISRDNSKNTLYLQMNSLRAEDTAAYYCAREGVYFDSGTYRGYFDYWGQETLVTVSS
VL: EIVLTQSPATLSLSPGERATLSCRASQSVSSYLAWYQQKPGQAPRLLIYDASNRATGIPARFSGSGSGTDFTLTISSLEPEDFAVYYCQQRSHWPPITFGQGTRLEIK
As for B11, the Trimeric HA Binding: RLU was 58800 RLU in assay [4]; 53300 RLU in assay [6]; 3500 RLU in [7]; 871 RLU in assay [18]; 8950 RLU in [8]; 2560 RLU in assay [10]. The Trimeric HA Binding: RLU in assay [11] amounted to 5330 RLU; in assay [12] it was 2860 RLU; in assay [13], 1050 RLU; in assay [14] it was 1450 RLU; in assay [15], 15700 RLU; in assay [16], 3240 RLU.
